Measurements from the supplement of paper PMC9112550, “Optimization of the antimicrobial peptide Bac7 by deep mutational scanning” (BMC Biology, 2022).

test system: Escherichia coli TOP10; experiment: shrunken log2 fold change of peptide-encoding DNA abundance (4.5 h post-induction vs induction); higher = less antimicrobial activity (less host growth inhibition); details: time post-induction: 4.5 h; library: site-saturation at positions 5, 18, 19, 20
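Further: peptides expressed intracellularly from a pBAD plasmid library in pooled LB shake-flask culture, induced with 0.3% L-arabinose, DNA abundance read by NGS, three biological replicates, DESeq2 with apeglm shrinkage.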

| Sequence | shrunken log2 fold change |
| --- | --- |
| RRIRSRPPRLPRPRPRPQIDPRP | -0.0914 |
| RRIRDRPPRLPRPRPRPVLDPRP | -0.0729 |
| RRIRKRPPRLPRPRPRPRGTPRP | 0.648 |
| RRIRERPPRLPRPRPRPYPAPRP | -0.544 |
| RRIRSRPPRLPRPRPRPAGIPRP | 0.138 |
| RRIRGRPPRLPRPRPRPAQHPRP | 0.378 |
| RRIRARPPRLPRPRPRPCVSPRP | -0.0271 |
| RRIRPRPPRLPRPRPRPEMQPRP | 1.05 |
| RRIRDRPPRLPRPRPRPILWPRP | 0.00705 |
| RRIRIRPPRLPRPRPRPHMAPRP | -0.367 |
| RRIRDRPPRLPRPRPRPHTYPRP | -0.163 |
| RRIRERPPRLPRPRPRPEFFPRP | -0.131 |
| RRIRVRPPRLPRPRPRPCNHPRP | -0.588 |
| RRIRTRPPRLPRPRPRPYFPPRP | -0.995 |
| RRIRQRPPRLPRPRPRPQVEPRP | -0.0173 |
| RRIRTRPPRLPRPRPRPYIAPRP | -0.476 |
| RRIRHRPPRLPRPRPRPHDKPRP | -0.293 |
| RRIRERPPRLPRPRPRPFICPRP | -0.36 |
| RRIRGRPPRLPRPRPRPREKPRP | 0.969 |
| RRIRDRPPRLPRPRPRPQRDPRP | 0.0917 |
| RRIRKRPPRLPRPRPRPCGPPRP | -0.0191 |
| RRIRFRPPRLPRPRPRPDSWPRP | -0.161 |

| Sequence | shrunken log2 fold change |
| --- | --- |
| RRIRGRPPRLPRPRPRPNNSPRP | -0.114 |
| RRIRSRPPRLPRPRPRPVHSPRP | 0.139 |
| RRIRQRPPRLPRPRPRPIDDPRP | -0.112 |
| RRIRERPPRLPRPRPRPMWMPRP | -0.0314 |
| RRIRDRPPRLPRPRPRPALLPRP | 1.02 |
| RRIRTRPPRLPRPRPRPRQIPRP | 0.0896 |
| RRIRKRPPRLPRPRPRPWHKPRP | -0.145 |
| RRIRERPPRLPRPRPRPEWSPRP | 0.0433 |
| RRIRHRPPRLPRPRPRPMMRPRP | 0.0201 |
| RRIRMRPPRLPRPRPRPPVTPRP | 0.673 |
| RRIRNRPPRLPRPRPRPGFMPRP | -0.0522 |
| RRIRVRPPRLPRPRPRPKDAPRP | 0.0211 |
| RRIRYRPPRLPRPRPRPYYIPRP | -1.83 |
| RRIRLRPPRLPRPRPRPDLHPRP | -0.0386 |
| RRIRMRPPRLPRPRPRPPEVPRP | 1.25 |
| RRIRIRPPRLPRPRPRPQDEPRP | 0.0381 |
| RRIRWRPPRLPRPRPRPWPIPRP | 0.0793 |
| RRIRWRPPRLPRPRPRPNEMPRP | -0.078 |
| RRIRNRPPRLPRPRPRPNTGPRP | 0.0312 |
| RRIRQRPPRLPRPRPRPFMPPRP | -0.216 |
| RRIRDRPPRLPRPRPRPHEVPRP | 0.0253 |
| RRIRQRPPRLPRPRPRPQTSPRP | 0.219 |

| Sequence | shrunken log2 fold change |
| --- | --- |
| RRIRKRPPRLPRPRPRPYRQPRP | -0.122 |
| RRIRMRPPRLPRPRPRPPTQPRP | 0.785 |
| RRIRMRPPRLPRPRPRPSHNPRP | -0.194 |
| RRIRKRPPRLPRPRPRPYWCPRP | -0.485 |
| RRIRGRPPRLPRPRPRPFNHPRP | -0.357 |
| RRIRSRPPRLPRPRPRPVMHPRP | 0.00492 |
| RRIRRRPPRLPRPRPRPRQAPRP | 0.801 |
| RRIRERPPRLPRPRPRPGCWPRP | 0.166 |
| RRIRNRPPRLPRPRPRPNLHPRP | -0.728 |
| RRIRDRPPRLPRPRPRPQVPPRP | -0.0122 |
| RRIRRRPPRLPRPRPRPMMTPRP | 0.975 |
| RRIRFRPPRLPRPRPRPRECPRP | 0.277 |
| RRIRHRPPRLPRPRPRPDNAPRP | -0.34 |
| RRIRSRPPRLPRPRPRPETFPRP | 0.0203 |
| RRIRYRPPRLPRPRPRPTIFPRP | -0.412 |
| RRIRRRPPRLPRPRPRPCEDPRP | 0.0155 |
| RRIRCRPPRLPRPRPRPACSPRP | -0.0823 |
| RRIRFRPPRLPRPRPRPWGSPRP | -0.0689 |
| RRIRMRPPRLPRPRPRPAYVPRP | -0.114 |
| RRIRCRPPRLPRPRPRPGMLPRP | -0.135 |
| RRIRHRPPRLPRPRPRPIEDPRP | 0.0058 |
| RRIRVRPPRLPRPRPRPGLNPRP | -0.00582 |

| Sequence | shrunken log2 fold change |
| --- | --- |
| RRIRHRPPRLPRPRPRPANEPRP | 0.0508 |
| RRIRDRPPRLPRPRPRPQAKPRP | -0.0241 |
| RRIRWRPPRLPRPRPRPFKIPRP | -0.358 |
| RRIRFRPPRLPRPRPRPRWTPRP | 1.19 |
| RRIRCRPPRLPRPRPRPFEQPRP | -0.669 |
| RRIRWRPPRLPRPRPRPVLEPRP | 0.227 |
| RRIRHRPPRLPRPRPRPEGEPRP | 0.0139 |
| RRIRPRPPRLPRPRPRPRKKPRP | 0.0638 |
| RRIRARPPRLPRPRPRPKYVPRP | -0.145 |
| RRIRKRPPRLPRPRPRPMWTPRP | 0.151 |
| RRIRPRPPRLPRPRPRPYQNPRP | -0.339 |
| RRIRQRPPRLPRPRPRPRHQPRP | -0.00749 |
| RRIRLRPPRLPRPRPRPKGFPRP | -0.109 |
| RRIRPRPPRLPRPRPRPKRNPRP | 0.142 |
| RRIRIRPPRLPRPRPRPARMPRP | 0.223 |
| RRIRRRPPRLPRPRPRPTPYPRP | 0.545 |
| RRIRKRPPRLPRPRPRPQHVPRP | -0.124 |
| RRIRARPPRLPRPRPRPTWAPRP | 0.621 |
| RRIRRRPPRLPRPRPRPIWGPRP | 0.163 |
| RRIRARPPRLPRPRPRPYSQPRP | -0.135 |
| RRIRVRPPRLPRPRPRPQAAPRP | 0.0662 |
| RRIRARPPRLPRPRPRPEDCPRP | 0.243 |

| Sequence | shrunken log2 fold change |
| --- | --- |
| RRIRLRPPRLPRPRPRPCWWPRP | 0.26 |
| RRIRWRPPRLPRPRPRPTGRPRP | 0.536 |
| RRIRDRPPRLPRPRPRPESPPRP | 0.000713 |
| RRIRCRPPRLPRPRPRPHCDPRP | -0.579 |
| RRIRTRPPRLPRPRPRPILTPRP | -0.139 |
| RRIRGRPPRLPRPRPRPAHRPRP | 0.224 |
| RRIRKRPPRLPRPRPRPMRFPRP | 0.123 |
| RRIRWRPPRLPRPRPRPSSMPRP | -0.411 |
| RRIRNRPPRLPRPRPRPKKFPRP | -0.0756 |
| RRIRYRPPRLPRPRPRPKEMPRP | -0.259 |
| RRIRCRPPRLPRPRPRPDCNPRP | -0.219 |
| RRIRIRPPRLPRPRPRPVNWPRP | -0.229 |
| RRIRLRPPRLPRPRPRPNELPRP | 0.0122 |
| RRIRRRPPRLPRPRPRPADKPRP | -0.121 |
| RRIRNRPPRLPRPRPRPFESPRP | 0.00843 |
| RRIRGRPPRLPRPRPRPWRVPRP | 0.499 |
| RRIRFRPPRLPRPRPRPITNPRP | -0.352 |
| RRIRCRPPRLPRPRPRPMRGPRP | 1.05 |
| RRIRSRPPRLPRPRPRPDWQPRP | -0.162 |
| RRIRLRPPRLPRPRPRPTLPPRP | 0.223 |
| RRIRYRPPRLPRPRPRPPVCPRP | 0.065 |
